Test results: the supplement of paper PMC9170038

Tested on: K4 kissing-loop RNA reporter
Assay: apparent KD of K4 kissing-loop reporter; higher = weaker reporter binding
Conditions: Eterna round: R107
Experimental: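 RNA-MaP round R107: designed RNA switches with theophylline, tryptophan, arginine or FMN aptamers are transcribed on-chip within common flanks. They are titrated with a labelled K4 kissing-loop RNA reporter in RNA-MaP buffer (100 mM Tris pH 7.5, 80 mM KCl, 4 mM MgCl2), without ligand or with the indicated ligand. Median apparent KD per design.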

[1] = input ligand: theophylline 20 uM
[2] = input ligand: tryptophan 2.4 mM
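Further: bound reporter read as fluorescence of individual clusters on recovered sequencing chips by microscopy, with normalized cluster intensities fitted with a binding model.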

Sequence	apparent KD of K4 kissing-loop reporter (input ligand: FMN 200 uM) [nM]	apparent KD of K4 kissing-loop reporter (input ligand: arginine 13.2 mM) [nM]	apparent KD of K4 kissing-loop reporter (input ligand: none) [nM]	apparent KD of K4 kissing-loop reporter [1] [nM]	apparent KD of K4 kissing-loop reporter [2] [nM]
CAUAGGAAACUAUGUAUCUCUCUUACUGAAGGAGCGCGUGAAAACGCAGGUAGGUCGCAGAAUUUAAUAGAGAGUGAUGUUCUCA [Ex Arginine A K4 6]	393	332	496	513	473
CAUAUUUCGGCGGCCGCCACUGACCAUAGCCUUCGAUGGCCAGUGAUGUUGGCCUCUGGCUCUAACAGGACCGGGCCGAAUUGUG [Uslaxe]	239	137	198	145	116
CAUCCUACACCUCAAGCAGUGAUGUUGCUACGAGGACCGGUACGGCCGCCACUCGUUUAAGCAUGGAUAUUAGCUGUGCUGACUA [theeternabot_exclusion_KL_Trp_A_16]	468	458	461	576	439
CAUGUGUCUGGAAGGAGCGCGGGUUGGUUAAACACUGUCGCGGGCCAGUGAUGUUGGAAUCCGCAGGUAGGUCGCCAGCCACUUG [Araton]	284	476	350	533	460
CAUUCUAAAUGCAGUGAUGUUGCAACUGAUACCAGUAUCGAAAGAUACCCUUGGCAGCGGAAAACCGCUACGUUUUUUUAGAAUG [Ex Theophylline A K4 23]	264	369	352	438	243
CCACUAUUCUUGUCGGAGUGAUGUUCCGAUACCAGCAUAGAGAUGUGCCCUUGGCAGCGGUCUAUUCUACGCCCGUCUAUUUCAA [Somari]	165	125	135	157	148
CCAGGUGGAAAAGGAUAUCUAGGAGUGAUGUUCCAUAUGAAAUUAGUUUAUCACCAAACGUCGACCAGAGAAGGUUUCCCAAUUU [theeternabot_exclusion_KL_FMN_B_31]	246	252	287	489	254
CCAUAUUCGUCGGCCGCCACUAUAAGCCAUCAUACAUUGGCUCUGUGAAAGUGAUGUUUUCUUGAUAGGACCGGGACUGUCAGCA [theeternabot_sameState_KL_Trp_B_24]	975	739	1020	903	646
CCAUCGCUAUUCGAUACCAGCCAAGAGGUCUUUGGCCUCUUAUUGGAGUGAUGUUCCAUUGGCCCUUGGCAGCGAAUAGUGAUGG [Theophylline B K4 17]	356	192	343	541	275
CCAUCGCUAUUCGAUACCAGCUACUUAGUGAUGUUAAGUUAAAAUCCACUGUAGGUGGAAAGCCCUUGGCAGCGAAUAGUGAUGG [Theophylline B K4 23]	235	189	205	117	203
CCAUCGCUAUUCGAUACCAGCUACUUAGUGAUGUUAAGUUAAAAUUAAUUGUAGAUUAAAAGCCCUUGGCAGCGAAUAGUGAUGG [Theophylline B K4 20]	159	141	154	119	152
CCAUCGCUAUUCGAUACCAGCUCCUUAGUGAUGUUGAGGUUUUACCCACUGUAGGUGGGAAGCCCUUGGCAGCGAAUAGUGAUGG [Theophylline B K4 29]	523	217	430	480	816
CCAUCGCUAUUCGAUACCAGUCAAUAGGUCUUUGGCCUAUUAAUGGAGUGAUGUUCCUUAGACCCUUGGCAGCGAAUAGUGAUGG [Theophylline B K4 12]	258	215	260	166	241
CCAUCGCUAUUCGAUACCAGUCAGGAGGUCUAUGACCUCCUAAUGGAGUGAUGUUCCUUAGACCCUUGGCAGCGAAUAGUGAUGG [#01 K4 Theophylline B Same State]	509	480	569	338	534
CCAUCGCUAUUCGAUACCAGUCAUUUUUUAUUUUAUUUUUUUUUUGGAGUGAUGUUCCAAGACCCUUGGCAGCGGAUAGUGAUGG [whbob_SS_Theo_B_th79]	117	150	117	158	109
CCAUCGCUAUUCGAUACCAGUCUUCGUAGGAAACUACGUCUGCAAAGGAGUGAUGUUCCAGACCCUUGGCAGCGAAUAGUGAUGG [Theophylline B K4 4]	771	553	1110	444	799
CCAUUCAUUUACGAUACCAGUCUAAUAUAUUUGAUCAAAACCCUCGCCGAGUGAUGUUCGGACCCUUGGCAGCGUCUGGGACAGG [eesetmullin]	477	325	503	403	414
CCAUUCUUUUACGAUACCAGUUUAAUUUAUUUAUUCAUAACCCUUGCCGAGUGAUGUUCGGACCCUUGGCAGCGUUUGCGAGAGG [vvuvmullin]	331	314	463	485	358
CCCAAGGGCGAACCGGUAUGAUCACCGGAUACCAGAGGCGAAAGCCUCCCUUGGCAGCCGGUUGUAGUGAUGUUACACUGGUUCU	91.4	74.6	88.7	118	87.7
CCCAGUGAUGUUGGGAGUAGCCACAGGGAAGGAGCGUGCUAGAGCACAGGUAGGUCGCCCACUGGGUCAGUGAUGUUGGUCGGGU [Same State Arginine A GF 28]	275	178	186	361	208
CCCUCACGAGUGAUGUUCGUAGGGUACAGUCAGGAUAUCAUGCGGUUGAGAAGGGACAGAGAGGGCGGCCACGGGUUGCUCAUCU [Tiongequ]	187	288	372	435	390
CCCUCACGAGUGAUGUUCGUAGGGUACAGUCAGGAUAUCAUGCGGUUGAGAAGGGACAGAGAGGGCGGCGGCGGGUUGCUCUUCG [Xeaan]	155	190	242	271	222

Sequence	apparent KD of K4 kissing-loop reporter (input ligand: FMN 200 uM) [nM]	apparent KD of K4 kissing-loop reporter (input ligand: arginine 13.2 mM) [nM]	apparent KD of K4 kissing-loop reporter (input ligand: none) [nM]	apparent KD of K4 kissing-loop reporter [1] [nM]	apparent KD of K4 kissing-loop reporter [2] [nM]
CCCUUGGUAUAUCGGUAUGUAUAAGCGGAUACCAGCCAGGACAACGGCCCUUGGCAGCCGGGCAGGCAGAGUGAUGUUCAUGCUA [theeternabot_exclusion_KL_Theo_A_22]	385	368	516	535	346
CCGAAGAACCAGUGAUGUUGGUUGACUAGACAGGAUAUGAGCAACAUCAGAAGGGUCUGGCUUCGGGAGUGGGUCGCGCUGACCU [Geeredin]	276	136	845	371	206
CCGAGUAGCUCCGAUACCAGCACAAUCGUUCAAUGAUCCAUGCGCAAGUGAUGUUUGCGUUGCCCUUGGCAGCGGGCAAAAGCUU [theeternabot_sameState_KL_Theo_B_2]	61.3	90	72.4	86.5	78.6
CCGCCAUCAUCAGAUACCAGGCUGAUGGCGGUAACCGCCAAGCGAGUGAUGUUCGCAUCAGUCCCUUGGCAGCUGAUGAAGACUG [#15 K4 Theophylline B Same State]	194	94.3	146	155	95.2
CCGCUGUAGUGCAUUAAGUGAUGUUUAGUGCAGGAUAUCUGGAAACAGAGAAGGGCACGUACUCGACGAGGCCAAUACAGCGGUU	319	290	335	310	358
CCUAUCUCAUACGAUACCAGUCAACGAUAUUUUAUCGAUGCCAUCACCGAGUGAUGUUCGGACCCUUGGCAGCGUAUGGGAUAGG [Ex Theophylline B K4 4]	248	244	270	445	251
CCUAUCUCAUACGAUACCAGUCGUCGAGUGAUGUUCGAUUAAAUAAAUUUGCCAAAUAACGACCCUUGGCAGCGUAUGGGAUAGG [Ex Theophylline B K4 16]	273	295	318	334	326
CCUAUCUCAUACGAUACCAGUCUAUUAAAACGAGUGAUGUUCGAAAAUUUGCCAUAUAAUGACCCUUGGCAGCGUAUGGGAUAGG [Ex Theophylline B K4 8]	201	185	203	211	176
CCUAUCUCAUACGAUACCAGUGAAUAACCAGUGAUGUUGGAAUAACCAAGGAAUAUUUUUCACCCUUGGCAGCGUAUGGGAUAGG [Ex Theophylline B K4 27]	492	285	378	385	312
CCUAUCUCAUACGAUACCAGUGAAUUUAUAUUUAUAAGCAGUGAUGUUGCAUUCCAAGUACACCCUUGGCAGCGUAUGGGAUAGG [Ex Theophylline B K4 21]	197	203	213	168	161
CCUAUCUCAUACGAUACCAGUGAAUUUAUGUUUAUUAGCAGUGAUGUUGCAUUCCAAGUACACCCUUGGCAGCGUAUGGGAUAGG [Ex Theophylline B K4 23]	178	201	205	193	151
CCUGAAUCAGUGAGUGAUGUUCACGUCGAUACCAGCUAGGAUACUAGCCCUUGGCAGCGACAAUUGCCAAGUGUGGCUAGUCAAA [Theo B SS t8]	140	134	160	148	147
CCUGAGUGAUGUUUAGGAGGCCCGAUAGAUACCAGAAAUACUGCGUUCCCUUGGCAGCUACGCGGACGGAAGACUACGUUACACG [theeternabot_exclusion_KL_Theo_A_16]	390	222	324	379	325
CCUGCAGCUGUAACCGAGUGAUGAUACGGACGAGGACCGGUACGGCCGCCACUCGCCAGUGAUGUUGGUGUGGGAGGACGUAACU [KL-XTryp-A23]	241	177	237	256	221
CCUUCCACAGAAGGAUAUCGGAGUGAUGUUCCCAAGCAGACCUCAAAGUGGGUAGCCAGUCAGUUCCGAGAAGGUCUGCAGCGAG [theeternabot_exclusion_KL_FMN_B_26]	250	280	271	370	189
CCUUCUCUUGAUAGUGAUGUUAUCAAGGACAAGGAUAUCAUCUCAAUGAGAAGGUGUCCUUGAUAACAUGGAGGUCUGAAACAGA [Omei KL FMN A Exc C v3]	148	249	287	407	385
CCUUCUCUUGAUAGUGAUGUUAUCAAGGGCAAGGAUAUCAUUUUAAUGAGAAGGUGUCCUUGAUAACAUGGAGGUCUGAAACAGA [Omei KL FMN A Exc C v6]	151	86.6	114	169	95.5
CGAACACCCUCGGCCGCCACUAGCCGUAGCCUGCGCUUGCGGAGUGAUGUUCUGAAGCAGGAUGUUAGGACCGGGAGCUACAUCC [theeternabot_sameState_KL_Trp_B_33]	527	542	446	428	371
CGACCGGUAGCGGAUACCAGCCUUUGAGUGAUGUUCGAGUUGAGUUUCCGCGCGUCGAAAGGCCCUUGGCAGCCGAUACGCCUUC [theeternabot_exclusion_KL_Theo_B_14]	236	192	207	187	188
CGAGAGGUCUUGUUUGGAUGUGUUUUAUGGCGAGGACCGGUACGGCCGCCACUCGGGUGAUGUUAGUGAUGUUGAUGUAGUGAUG [dcdmullin]	91.9	79.9	93.4	162	76.9
CGAGUCGGUUCAGAUACCAGCCAAUUAAAGUCGAGUGAUGUUCGACAAUGAACGUCCAAAGGCCCUUGGCAGCUGAAUUGGGAAC [Same State Theophylline B GF 19]	216	107	191	250	122
